Results reported in patent US20240287172A1 (SCIRHOM, published 2024).

Molecular target: T1, hiR2-FL-M534-T7 (deletion of M534) (human, UniProt Q6PJF5 1-856)
T1 construct: single amino acid deletion
T1 sequence: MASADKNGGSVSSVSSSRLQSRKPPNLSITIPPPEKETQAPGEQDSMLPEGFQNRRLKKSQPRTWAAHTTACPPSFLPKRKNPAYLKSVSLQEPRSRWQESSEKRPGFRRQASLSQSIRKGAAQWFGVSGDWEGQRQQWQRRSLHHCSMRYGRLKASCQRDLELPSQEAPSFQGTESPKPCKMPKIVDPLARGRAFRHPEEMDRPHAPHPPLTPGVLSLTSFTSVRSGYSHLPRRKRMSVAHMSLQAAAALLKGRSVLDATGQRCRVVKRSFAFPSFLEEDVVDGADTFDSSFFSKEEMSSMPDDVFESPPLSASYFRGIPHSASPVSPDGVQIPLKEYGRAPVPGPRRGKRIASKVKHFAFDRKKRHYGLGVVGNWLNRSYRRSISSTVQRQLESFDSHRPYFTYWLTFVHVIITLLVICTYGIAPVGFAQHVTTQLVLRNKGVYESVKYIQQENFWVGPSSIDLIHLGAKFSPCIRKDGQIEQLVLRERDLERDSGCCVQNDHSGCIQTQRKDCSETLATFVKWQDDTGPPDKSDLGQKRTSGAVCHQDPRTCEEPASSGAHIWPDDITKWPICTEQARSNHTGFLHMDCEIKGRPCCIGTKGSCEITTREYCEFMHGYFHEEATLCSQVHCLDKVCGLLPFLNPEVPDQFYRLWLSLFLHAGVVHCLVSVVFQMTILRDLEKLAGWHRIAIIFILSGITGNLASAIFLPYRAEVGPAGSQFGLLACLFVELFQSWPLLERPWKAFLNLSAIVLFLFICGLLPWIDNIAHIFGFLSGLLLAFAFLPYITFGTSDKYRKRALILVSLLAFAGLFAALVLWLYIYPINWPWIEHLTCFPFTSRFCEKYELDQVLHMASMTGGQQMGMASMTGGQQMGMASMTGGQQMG
Experiment: FACS, MEF-DKO cells, 3 µg/ml
Source text: In brief, immortalized MEF-DKO-hiR2-FL-G498A-T7, MEF-DKO-hiR2-FL-Q502R-T7, MEF-DKO-hiR2-FL-I509V-T7, MEF-DKO-hiR2-FL-Q512S-T7, MEF-DKO-hiR2-FL-R513E-T7, MEF-DKO-hiR2-FL-K514E-T7, MEF-DKO-hiR2-FL-D515E-T7, MEF-DKO-hiR2-FL-E518S-T7, MEF-DKO-hiR2-FL-T522V-T7, MEF-DKO-hiR2-FL-F523W-T7, MEF-DKO-hiR2-FL-Q527P-T7, MEF-DKO-hiR2-FL-D528I-T7, MEF-DKO-hiR2-FL-D529H-T7, MEF-DKO-hiR2-FL-T530P-T7, MEF-DKO-hiR2-FL-G531S-T7, MEF-DKO-hiR2-FL-P532A-T7, MEF-DKO-hiR2-FL-M534-T7, MEF-DKO-hiR2-FL-D535-T7, MEF-DKO-hiR2-FL-K536-T7, MEF-DKO-hiR2-FL-S537E-T7, MEF-DKO-hiR2-FL-D538L-T7, MEF-DKO-hiR2-FL-L539A-T7, MEF-DKO-hiR2-FL-Q541H-T7, MEF-DKO-hiR2-FL-T544Q-T7, MEF-DKO-hiR2-FL-S545F-T7, MEF-DKO-hiR2-FL-A547S-T7, MEF-DKO-hiR2-FL-T555V-T7, MEF-DKO-hiR2-FL-E557D-T7, MEF-DKO-hiR2-FL-A560S-T7 and MEF-DKO-hiR2-FL-S562E-T7 cells were harvested with 10 mM EDTA in PBS, washed and resuspended in FACS buffer (PBS, 3% FBS, 0.05% sodium azide), and seeded in Nunc U-bottom 96-well plates (Thermo Fisher Scientific, USA) at approximately 3×10⁵ cells per well. To pellet cells and remove supernatants, the plates were centrifuged at 1,500 rpm and 4° C. for 3 minutes. For primary staining, cells were resuspended in 100 μl per well of either FACS buffer alone (controls) or the purified antibodies 3, 5, 16, 22, 34, 42, 43, 44, 48, and 50 of the invention at 3 μg/ml in FACS buffer and incubated on ice for 1 hour. Afterwards, plates were centrifuged at 1,500 rpm and 4° C. for 3 minutes and washed twice with 200 μl per well of FACS buffer. For secondary staining, cells were spun down and resuspended in 100 μl per well of PE-conjugated goat anti-mouse IgG F(ab′)2 detection fragment (Dianova, Germany) diluted 1:100 in FACS buffer. Protected from light, the cell suspensions were incubated on ice for 1 hour. Plates were then centrifuged at 1,500 rpm and 4° C. for 3 minutes and washed three times with 200 μl per well of FACS buffer. Finally, cells were resuspended in 150 μl per well of FACS buffer and analyzed using a BD Accuri™ C6 Plus flow cytometer (Becton Dickinson, Germany).

B1: antibody 16 (antibody, V domains shown)
VH: QVTLKESGPGILQPSQTLSLTCSFSGFSLSTFALGVGWIRQPSGRGLEWLAHIWWDDDKYYNPALKSRLTISKDTSKNHVFLKIANVDTADTATYYCARITTYYYGMDYWGQGTSVTVSS
VL: DIVLSQSPATLSVTPGDSVSLFCRASQSIGNHLHWYQQESHASPRLLIKYASQSISGIPSRFSGSGSGTDFTLSINSVETEDFGMYFCQQSYNWPLTFGAGTKLELK
notes: mouse IgG, kappa light chain; also called clone #16; purified antibody 16
- loss of binding vs wild type: ≥ 95%

B2: antibody 5 (antibody, V domains shown)
VH: QVTLKESGPGILQPSQTLSLTCSFSGFSLSTFGMGVGWIRQPSGKGLEWLAHIWWDDEKYYNSALKSRLTISKATSKNQAFLKIANVDTADTATYYCARISNYGSNYWYFNVWGTGTTVTVSS
VL: QVVLTQSPALMSASPGEKVTMTCSAGSSVSCMYWYQQKPGSSPRVLIYDTSNLASGVPARFTGSGSGTSYSLTISRMEAEDAASYYCQQWNSYPLTFGAGTKLELK
notes: mouse IgG, kappa light chain; also called clone #5; purified antibody 5
- loss of binding vs wild type: ≥ 95%

B3: antibody 22 (antibody, V domains shown)
VH: QVTLKESGPGILQPSQTLSLTCSFSGFSLSTFGMGVGWIRQPSGKGLEWLAHIWWDDEKYYNSALKSRLTISKATSKNQVFLKIANVDTADTATYYCARISNYGSNYWYFNVWGTGTTVTVSS
VL: QVVLTQSPALMSASPGEKVTMTCSAGSSVSYMYWYQQKPGSSPRVLIYDTSNLASGVPARFTGSGSGTSYSLTISRMEAEDAATYYCQQWNSYPLTFGAGTKLELK
notes: mouse IgG, kappa light chain; also called clone #22; purified antibody 22
- loss of binding vs wild type: ≥ 95%

B4: antibody 42 (antibody, V domains shown)
VH: QVTLKESGPGILQPSQTLSLTCSLSGFSLSTFGRGVGWIRQPSGKGLEWLAHIWWDDEKYYNPALKSRLTISKDTSKNQVFLRIANVDTADTATYYCARIQNYGSNYWYFDVWGTGTTVTVSS
VL: LIVLTQSPAIMSASPGEKVTMTCGATSRISYMFWYQQKPGSSPRVLIYDTSNLASGVPVRFSGSGSGTSYSLTISRVEAEDVATYYCQQWNSYPLTFGAGTKLELK
notes: mouse IgG, kappa light chain; also called clone #42; purified antibody 42
- loss of binding vs wild type: ≥ 95%

B5: antibody 3 (antibody, V domains shown)
VH: QVTLKESGPGILQPSQTLSLTCSFSGFSLTTFAMGIGWVRQPSGKGLEWLAHIWWDGEKYNNPVLKSRLTISKDTSKNQVFLRIANVDTPDTATYYCARISSIYYIIDNWGQGTSVTVSS
VL: DIVLTQSPATLSVTPGHSVSLSCRASQSISNNLHWYQKKSHESPRLLIKYVSQSISGIPSRFSGSGSGTDFTLSINSVETEDFGMYFCQQSYNWPLTFGAGTKLELK
notes: mouse IgG, kappa light chain; also called clone #3; purified antibody 3
- loss of binding vs wild type: ≥ 95%

B6: antibody 34 (antibody, V domains shown)
VH: QVTLKESGPGILQPSQTLSLTCSFSGFSLSTFSLGVGWIRQSSGKGLEWLAHIWWDDEKYYNPALKSRLTISKDTSKNQVFLKIANVDAADTATYYCARAYYSKSYYALDYWGQGTSVTVSS
VL: DIQMTQSPSSLSASLGERVSLTCRASQEISGYLSWLQQKPDGTIKRLIYAASTLDSGVPKRFSGSRSGSDYSLAISSLESEDFADYYCLQYANFPFTFGSGTKLEIK
notes: mouse IgG, kappa light chain; also called clone #34; purified antibody 34
- loss of binding vs wild type: ≥ 95%

B7: antibody 43 (antibody, V domains shown)
VH: QVALKESGPGILQPSQTLSLTCSFSGFSLSTFGMGVGWIRQSSGKGLEWLANIWWDDDKYYNPALKSRLTISKDASKNQAFLKIANVDTADTATYYCARIGNYGSNYWYFDVWGTGTTVTVSS
VL: QIVLTQSPAIMSASPGERVTMTCSANSRISYMYWYQQKPGSSPRLLIYDTSNLASGVPVRFSGSGSGTSYSLTISRMEAEDAATYNCQQWSSYPLTFGAGTKLELK
notes: mouse IgG, kappa light chain; also called clone #43; purified antibody 43
- loss of binding vs wild type: ≥ 95%

B8: antibody 44 (antibody, V domains shown)
VH: QVTLKESGPGILQPSQTLSLTCSFSGFSLSTFGMGVGWIRQPSEKGLEWLAHIWWDDDKYYNPALKSRLTISKDTSKNQIFLKITNVDTAETATYYCSRIGNYGSNYWYFDVWGTGTTVTVSS
VL: QIVLTQSPAVMSASPGEKVTMTCTASSSVYYMYWYQQTPGSSPRLLIYDTSNLASGVPVRFSGSGSGTSYSLTISRMEAEDAATYYCQQWNTYPLTFGAGTKLELK
notes: mouse IgG, kappa light chain; also called clone #44; purified antibody 44
- loss of binding vs wild type: ≥ 95%
